Experimental data from the DeepSol protein solubility set.

test: soluble on expression in E. coli; label from the status in PepcDB or PDB records

Sequence	soluble on expression in E. coli
MGACPRFERASARGMIARNPIKQDPAMRNTQDDHSRFLSLVLRHQPETIGLQLDDQGWADIGELLARLAAKGRNLGRKQLEKIVLDNDKQRFAISEDGLRIRANQGHSIKIDLGLAACEPPDRLYHGTASRFLDAILAEGLRPGQRQHVHLSADGQTARKVGARHGKPVVLEIDARAMRQAGLAFYRSDNGVWLIDGVPPVFIRQTEARLEHHHHHH	soluble
MGSDKIHHHHHHMFSGIAHCADCGSKLYYCTTRYFETRHDHFRCSASQKAVDPCTSHFIRAVVLEEMVLAHMRYVIGFVQRYEDSFRVSIEAERSTEIQKELSAKRKQIAQSQKRVDDLDVLFRKVYEDNASGKLTDERFMQLSRGYDLEQKTLRQMITMLEKEIDQQEQKTTQVEDFIAKCKRYSSLETLTPAILNDLVIKVFVEAPDKSTGKRRQGIHISYNLVGILPPLERFQPVVVERPNKEKAETA	not soluble
MTQNTKLRPITPEFDPWEAYMDVDQYGDMQLTNVEFTTTTLCNMRCEHCAVGYTLQPKDPNALPIDLLLKRLEEIPRLRSISITGGEPMLSLKSVKEYVVPLLKYAHERGVRTQINSNLTLDIERYEWIIPYLDVLHISHNWGTVEDFAEIGFA	not soluble
MPGTKRFQHVIETPEPGKWELSGYEAAVPITEKSNPLTQDLDKADAENIVRLLGQCDAEIFQEEGQALSTYQRLYSESILTTMVQVAGKVQEVLKEPDGGLVVLSGGGTSGRMAFLMSVSFNQLMKGLGQKPLYTYLIAGGDRSVVASREGTEDSALHGIEELKKVAAGKKRVIVIGISVGLSAPFVAGQMDCCMNNTAVFLPVLVGFNPVSMARNDPIEDWSSTFRQVAERMQKMQEKQKAFVLNPAIGPEGLSGSSRMKGGSATKILLETLLLAAHKTVDQGIAASQRCLLEILRTFERAHQVTYSQSPKIATLMKSVSTSLEKKGHVYLVGWQTLGIIAIMDGVECIHTFGADFRDVRGFLIGDHSDMFNQKAELTNQGPQFTFSQEDFLTSILPSLTEIDTVVFIFTLDDNLTEVQTIVEQVKEKTNHIQALAHSTVGQTLPIPLKKLFPSIISITWPLLFFEYEGNFIQKFQRELSTKWVLNTVSTGAHVLLGKILQNHMLDLRISNSKLFWRALAMLQRFSGQSKARCIESLLRAIHFPQPLSDDIRAAPISCHVQVAHEKEQVIPIALLSLLFRCSITEAQAHLAAAPSVCEAVRSALAGPGQKRTADPLEILEPDVQ	soluble
GEEKKDSKAFIDVSAATLWTAPDSLRPIDVPSATNPVDLWKWTKSMTLDEKLWLTNANKLETQALLGQEVTVVDKKGDWVKVLVHGQPTPRNEEGYPGWMPEKQLTYNQEFADKTNEPFVLVTKPTAILYINPSEKHKSLEVSYNTRLPLLSEDTISYRVLLPNGQKAWLRKNDGTFYRSQNDIPTPAADDLINTGKMFLGLPYIWAGTSGFGFDCSGFTHTIYKSHGITIPRDSGPQSRNGVAVDKEHLQKGDLIFFAHDQGKGSVHHVAMYIGDGNMIHSPRAERSVEIIPLNTPGYIEEYAGARRYLP	soluble
MIFRRSRPGTIGAVTLLCASLLAMPASSACTRFVYHGANDEVITARSMDWKVDVGTNLWAFPRGMQRSGQAGPNSIQWTSKHGSVIASGYDISTTDGMNEAGLVANVLWLAESSYPEYDGKTPGLTLAAWAQYVLDNFASVREAVDTLASEPFTVVTDNVPGEQRPATLHLSLSDASGDSAIIEYIDGKQVIHHNRAYQVMTNSPTFDKQLALNEYWKQIGGTVMLPGTNRASDRYARAYFYVNAIPKSEDPVEAIASVFSVIRNVSVPYGITTPDQPNISSTRWRTVADHKRKRYFFESALTPNIFWIDLGALDFSAESGKVMKLDLGPDQAHIYSGQANAHFEQAAPFKFLGL	not soluble
SLNAAAADRNKDPILSVLKSRVASNRRLFALEISSGTGQHVVHFAKAFPNITWQPSEVETQSLSSIEAYRQYHRLQNVQPPIYLDVSQSWQTWGGFPAESCDLIININMMHISPLACTTGLFHGVGQILKPQGLLLTYGPYAFNGSIVPQSNFDFDQSLRYRNPEWGLRDASFLTTLGQENGLRLEEIVDMPANNKCLLFRKDSVV	soluble
MQWRRCKVITRDFLMNADCKTAFGAIEESLLWSAEQRAASLAATLACRPDEGPVWIFGYGSLMWNPALEFTESCTGTLVGWHRAFCLRLTAGRGTAHQPGRMLALKEGGRTTGVAYRLPEETLEQELTLLWKREMITGCYLPTWCQLDLDDGRTVNAIVFIMDPRHPEYESDTRAQVIAPLIAAASGPLGTNAQYLFSLEQELIKLGMQDDGLNDLLVSVKKLLAENYPDGVLRPGFALEHHHHHH	not soluble
